According to paper PMC10470207, “Activation of human RNA lariat debranching enzyme Dbr1 by binding protein TTDN1 occurs though an intrinsically disordered C-terminal domain” (The Journal of Biological Chemistry, 2023):

Legend:
[1] = target: T1, human RNA lariat debranching enzyme Dbr1, full-length (1-544) (human, UniProt Q9UK59 1-544); experiment: cell-based or functional assay
T1 sequence (looked up): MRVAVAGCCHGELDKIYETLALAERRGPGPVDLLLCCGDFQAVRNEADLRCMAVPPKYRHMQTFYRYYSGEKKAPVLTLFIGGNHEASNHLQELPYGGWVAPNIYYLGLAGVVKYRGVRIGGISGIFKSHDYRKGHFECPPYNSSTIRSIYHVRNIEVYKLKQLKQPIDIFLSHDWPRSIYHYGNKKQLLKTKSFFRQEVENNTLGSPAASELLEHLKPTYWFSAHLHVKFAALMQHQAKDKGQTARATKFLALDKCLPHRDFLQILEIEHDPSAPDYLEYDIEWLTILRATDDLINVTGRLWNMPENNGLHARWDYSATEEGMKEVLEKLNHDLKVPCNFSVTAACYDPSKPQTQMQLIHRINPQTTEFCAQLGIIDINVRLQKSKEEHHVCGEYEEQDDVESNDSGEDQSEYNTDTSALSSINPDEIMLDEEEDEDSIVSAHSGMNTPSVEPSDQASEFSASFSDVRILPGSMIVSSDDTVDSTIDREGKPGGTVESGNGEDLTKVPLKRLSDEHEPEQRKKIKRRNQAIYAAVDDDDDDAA

[2] = target: T1, human RNA lariat debranching enzyme …; experiment: fluorescence polarisation; fluorescein-labeled TTDN1 fixed at 2.5 nM; unlabeled Dbr1 titrated (3-fold dilution from 2.8 uM to 1 nM) or Drn1 at 225 nM; SEC buffer; black 96-well half-area plates; settings: both partners purified
[3] = target: T1, human RNA lariat debranching enzyme …; experiment: SEC; Superdex 200-Increase 10/300 in SEC buffer (50 mM Tris pH 8, 100 mM NaCl, 1 mM TCEP); about 100 ug Dbr1 injected, Drn1 added at an equimolar ratio; peak fraction on a Coomassie-stained denaturing gel; settings: both partners purified
[4] = target: the molecule itself; experiment: AUC; proteins diluted to 0.9 A280 in Q-A buffer (20 mM Tris pH 8, 50 mM NaCl, 1 mM TCEP); 40,000 RPM; analysed with Ultrascan

B1: trichothiodystrophy nonphotosensitive 1 (TTDN1), fluorescein-labeled (natural protein, UniProt Q8TAP9 1-179, looked up)
chain: MQRQNFRPPTPPYPGPGGGGWGSGSSFRGTPGGGGPRPPSPRDGYGSPHHTPPYGPRSRPYGSSHSPRHGGSFPGGRFGSPSPGGYPGSYSRSPAGSQQQFGYSPGQQQTHPQGSPRTSTPFGSGRVREKRMSNELENYFKPSMLEDPWAGLEPVSVVDISQQYSNTQTFTGKKGRYFC
modifications: 5-iodoacetamido-fluorescein label on the cysteine residue at the C terminus
notes: trichothiodystrophy nonphotosensitive 1 (TTDN1); codon-optimized expression plasmid ordered from GenScript; The debranching (functional) assays used unlabeled, GuHCl-solubilized TTDN1 of the same construct; also called labeled TTDN1
B1 was tested, and the “catalytic efficiency of Dbr1 debranching of a fluorescent branched RNA substrate, TTDN1:Dbr1 mixture at 10:1 molar ratio (unlabeled, GuHCl-solubilized TTDN1), relative to Dbr1 alone” value [1] was 19 fold and the Kd [2] was ~3 nM.

B2: Drn1 (human Drn1 homolog, Cwf19-L1) (natural protein, UniProt Q69YN2 1-538, looked up)
chain: MAQKPLRLLACGDVEGKFDILFNRVQAIQKKSGNFDLLLCVGNFFGSTQDAEWEEYKTGIKKAPIQTYVLGANNQETVKYFQDADGCELAENITYLGRKGIFTGSSGLQIVYLSGTESLNEPVPGYSFSPKDVSSLRMMLCTTSQFKGVDILLTSPWPKCVGNFGNSSGEVDTKKCGSALVSSLATGLKPRYHFAALEKTYYERLPYRNHIILQENAQHATRFIALANVGNPEKKKYLYAFSIVPMKLMDAAELVKQPPDVTENPYRKSGQEASIGKQILAPVEESACQFFFDLNEKQGRKRSSTGRDSKSSPHPKQPRKPPQPPGPCWFCLASPEVEKHLVVNIGTHCYLALAKGGLSDDHVLILPIGHYQSVVELSAEVVEEVEKYKATLRRFFKSRGKWCVVFERNYKSHHLQLQVIPVPISCSTTDDIKDAFITQAQEQQIELLEIPEHSDIKQIAQPGAAYFYVELDTGEKLFHRIKKNFPLQFGREVLASEAILNVPDKSDWRQCQISKEDEETLARRFRKDFEPYDFTLDD
notes: human Drn1 homolog (Cwf19-L1); cDNA purchased from Genecopoeia, subcloned into a modified pET vector; source: E. coli BL21, purified (Ni column, Superdex-200)
For B2, the “stoichiometry N” value [3] was 1.

B3: human Dbr1 truncated after residue 502 (Dbr1-502) (domain or fragment, UniProt Q9UK59 1-502, looked up)
chain: MRVAVAGCCHGELDKIYETLALAERRGPGPVDLLLCCGDFQAVRNEADLRCMAVPPKYRHMQTFYRYYSGEKKAPVLTLFIGGNHEASNHLQELPYGGWVAPNIYYLGLAGVVKYRGVRIGGISGIFKSHDYRKGHFECPPYNSSTIRSIYHVRNIEVYKLKQLKQPIDIFLSHDWPRSIYHYGNKKQLLKTKSFFRQEVENNTLGSPAASELLEHLKPTYWFSAHLHVKFAALMQHQAKDKGQTARATKFLALDKCLPHRDFLQILEIEHDPSAPDYLEYDIEWLTILRATDDLINVTGRLWNMPENNGLHARWDYSATEEGMKEVLEKLNHDLKVPCNFSVTAACYDPSKPQTQMQLIHRINPQTTEFCAQLGIIDINVRLQKSKEEHHVCGEYEEQDDVESNDSGEDQSEYNTDTSALSSINPDEIMLDEEEDEDSIVSAHSGMNTPSVEPSDQASEFSASFSDVRILPGSMIVSSDDTVDSTIDREGKPGGTVESGNG
notes: source: E. coli, purified
B3: binds [4].

B4: human Dbr1 truncated after residue 399 (Dbr1-399) (domain or fragment, UniProt Q9UK59 1-399, looked up)
chain: MRVAVAGCCHGELDKIYETLALAERRGPGPVDLLLCCGDFQAVRNEADLRCMAVPPKYRHMQTFYRYYSGEKKAPVLTLFIGGNHEASNHLQELPYGGWVAPNIYYLGLAGVVKYRGVRIGGISGIFKSHDYRKGHFECPPYNSSTIRSIYHVRNIEVYKLKQLKQPIDIFLSHDWPRSIYHYGNKKQLLKTKSFFRQEVENNTLGSPAASELLEHLKPTYWFSAHLHVKFAALMQHQAKDKGQTARATKFLALDKCLPHRDFLQILEIEHDPSAPDYLEYDIEWLTILRATDDLINVTGRLWNMPENNGLHARWDYSATEEGMKEVLEKLNHDLKVPCNFSVTAACYDPSKPQTQMQLIHRINPQTTEFCAQLGIIDINVRLQKSKEEHHVCGEYEEQ
notes: source: E. coli, purified
B4: binds [4].
